± gives the standard deviation of the averaged measurements.
system: ATP; test: switch fluorescence ratio, 500 uM ATP over buffer (Cy3 cluster intensity, sum of 5 cycles each) (fold (ratio)); higher = stronger signal-on switching upon ATP binding; sequences stand for … in TCGTCGGCAGCGTCAGATGTGTATAAGAGACAGTTTTTTTTTTTTTTTTTTTTTTTTT…TC; details: aptamer strand: ATP DNA aptamer (quencher-CACCTGGGGGAGTATTGCGGAGGAAGG + anchor), 100 nM annealed; ATP concentration: 500 uM
How it was run: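 Clusters with intensities outside 100-1000 RFU were excluded. The remaining Cy3-labelled switching-strand clusters on a modified Illumina MiSeq flow-cell had been annealed to 100 nM quencher-labelled ATP aptamer and imaged in selection buffer, then after 15 min with 500 uM ATP at 22 °C, for five cycles separated by NaOH stripping and re-annealing. The fluorescence ratio, averaged per switch-domain sequence, is each cluster's summed target-cycle Cy3 intensity over its summed buffer-cycle Cy3 intensity.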
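Further: ATP exposure 15 min at 22 °C before imaging.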

| Sequence | switch fluorescence ratio |
| --- | --- |
| AAATACGGGA | 1.17 ± 0.13 |
| AAATAGGCA | 0.981 ± 0.017 |
| AAATAGGGCT | 1.004 ± 0.0097 |
| AAATAGGGGG | 0.967 ± 0.026 |
| AAATATCTCA | 1.02 ± 0.013 |
| AAATATCTCT | 0.982 ± 0.048 |
| AAATATCTGC | 1.04 ± 0.029 |
| AAATATGACT | 1.06 ± 0.058 |
| AAATCAAATT | 1.007 ± 0.0055 |
| AAATCAGTGG | 0.998 ± 0.031 |
| AAATCATATT | 0.968 ± 0.0054 |
| AAATCATTAA | 1.02 ± 0.018 |
| AAATCCTTGT | 0.992 ± 0.039 |
| AAATCGAGGT | 0.9917 ± 0.0052 |
| AAATCGATGG | 0.9987 ± 0.0023 |
| AAATCGCCTT | 1.05 ± 0.02 |
| AAATCGTCGG | 0.991 ± 0.024 |
| AAATCTCGT | 0.995 ± 0.058 |
| AAATCTTTAT | 1.01 ± 0.032 |
| AAATGAAAAC | 0.98 ± 0.037 |
| AAATGAACCG | 1.06 ± 0.013 |
| AAATGAGATT | 1.002 ± 0.0048 |

| Sequence | switch fluorescence ratio |
| --- | --- |
| AAATGCAGGT | 0.9908 ± 0.0061 |
| AAATGCCGAT | 0.992 ± 0.015 |
| AAATGCGGTA | 1 ± 0.056 |
| AAATGCTTG | 0.983 ± 0.019 |
| AAATGGGACT | 1.03 ± 0.026 |
| AAATGGGGGT | 0.975 ± 0.011 |
| AAATGGGTAC | 0.9935 ± 0.0099 |
| AAATGGGTTC | 0.9874 ± 0.0083 |
| AAATGGTGAT | 1.035 ± 0.0041 |
| AAATGGTGTA | 0.983 ± 0.028 |
| AAATGGTTGG | 0.995 ± 0.025 |
| AAATGTAAAA | 1.01 ± 0.042 |
| AAATGTCTAG | 1.01 ± 0.037 |
| AAATGTCTCT | 1.01 ± 0.012 |
| AAATGTTTAA | 1.01 ± 0.019 |
| AAATGTTTGT | 1.006 ± 0.0099 |
| AAATTAAAGG | 1 ± 0.013 |
| AAATTAGGAT | 0.997 ± 0.039 |
| AAATTAGGTC | 0.95 ± 0.11 |
| AAATTATTTC | 0.989 ± 0.033 |
| AAATTCAATG | 0.995 ± 0.013 |
| AAATTCATTA | 0.981 ± 0.083 |

| Sequence | switch fluorescence ratio |
| --- | --- |
| AAATTGCGAC | 1.03 ± 0.026 |
| AAATTGGACA | 1.04 ± 0.049 |
| AAATTGGGG | 0.9583 ± 0.0056 |
| AAATTGGGGG | 1.02 ± 0.075 |
| AAATTGGGTG | 1.02 ± 0.048 |
| AAATTGGTTG | 0.976 ± 0.014 |
| AAATTGGTTT | 0.995 ± 0.032 |
| AAATTGTAAA | 0.969 ± 0.051 |
| AAATTGTAAT | 1.02 ± 0.041 |
| AAATTGTATT | 1 ± 0.024 |
| AAATTGTTTT | 1.01 ± 0.019 |
| AAATTTAATG | 0.961 ± 0.016 |
| AAATTTACAT | 1.002 ± 0.0034 |
| AAATTTAGCT | 1.0313 ± 0.0006 |
| AAATTTATAA | 0.984 ± 0.044 |
| AAATTTATGT | 0.972 ± 0.027 |
| AAATTTCTTA | 1 ± 0.026 |
| AAATTTTGTT | 0.987 ± 0.021 |
| AACAAATGAT | 1.007 ± 0.0024 |
| AACAACCATT | 1.05 ± 0.051 |
| AACAAGTTAG | 1.01 ± 0.015 |
| AACAATATTG | 1.02 ± 0.028 |

| Sequence | switch fluorescence ratio |
| --- | --- |
| AACAATGCTA | 1.05 ± 0.026 |
| AACAATTCTG | 1.01 ± 0.012 |
| AACACAAGGT | 1.02 ± 0.017 |
| AACACGTATA | 1.227 ± 0.0097 |
| AACAGAAAGG | 0.982 ± 0.045 |
| AACAGAAATA | 1.01 ± 0.021 |
| AACAGAGTTA | 1.02 ± 0.013 |
| AACAGGACTG | 1 ± 0.036 |
| AACAGGCGAT | 0.985 ± 0.034 |
| AACAGGTACT | 1.074 ± 0.0094 |
| AACAGTAGCA | 1.03 ± 0.019 |
| AACATAGGTG | 1.14 ± 0.056 |
| AACATGGGGC | 1.02 ± 0.041 |
| AACATTGTGG | 1.017 ± 0.0063 |
| AACATTTAGC | 1.01 ± 0.039 |
| AACATTTCTT | 0.976 ± 0.045 |
| AACATTTTGC | 0.9941 ± 0.0069 |
| AACATTTTTT | 0.99 ± 0.019 |
| AACCACGTTA | 1.09 ± 0.053 |
